In patent publication US20240254202A1 (CONSEJO NACIONAL DE INVESTIGACIONES CIENT FICAS Y T CNICAS …, published 2024):

B1: NbCoV_39 (VHH)
VHH: QVQLQESGGGLVQAGGSLRLSCAASGRTFSSTAMAWFRQAPGQEREFVATISWSGDNTKYADSVKGRFTISRDNAKNTVYLQMNSLKPEDTAVYYCAADPGNFGVPIEYFMFDYWGQGTQVTVSS
notes: also called Nb 39; 39A
B2: NbCoV_43 (VHH)
VHH: QVQLQESGGGLVQPGGSLRLSCVASGSIGSINHMAWFRKPPGKERELVASITLAPDEIAYYADSVKGRFAISKGNAQPTLYLQMNSLKPEDTAVYYCHFRQIRANAHDVYWGQGTQVTVSS
notes: also called Nb 43
B3: NbCoV_104 (VHH)
VHH: QVQLQESGGGLVQPGGSLRLSCAASGSIFRVMGWYRQAPGKEHDLVATITRSGDTNYADSVKGRFTISRDNTKNTVYLQMNNLKPEDTDVYYCYARNFVGHNPDVWGQGTQVTVSS
notes: also called Nb 104

molecular target: Spike protein of wild-type virus B. 1.499, hCoV-19/Argentina/PAIS-C0102/2020 (Andina Strain) (SARS-CoV-2); experiment: cell-based or functional assay

| Binder | wildtype VN assay on Vero cells, neutralizing activity [µM] |
| --- | --- |
| B1 | 0.4 |
| B2 | 0.1 |
| B3 | 0.3 |
